Results reported in a protein production outcome set (Wang et al. 2014).
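Note: failed if final PepcDB status was selected cloned or expressed and not failed if soluble or beyond.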

Experiment: label from the status in PepcDB records
With “MTVEEAIALVEQLLSGTRLTKVQEIVFRQCWAGQTYSDIALESDYDLGYIKDVGSELWRSLSQALGEKVTKKNLYTVLKRAAKQNSINPSSSLQLPSLANYTDWGEAIDVSQFYGRTHDLATLSRWVLQDNCRVVSLLGMGGIGKTALSVKLAQQLQGQFEYVIWRSLRHAPSFSDKLTECIKILSNQQVTTLPASSHEQITYLIEYLRKSRCLLILDNFDTLLQDGKRAGSYRQGYEPYGELLWRLGETQHQSCVLITSREKPAQIAALEGDGLPVRTLALSGLEVAAGQTILTLKGLSGSEDQTRQLVECYGGNPLALKIAATSIRDLHEGSIANFLSEGTTVFQGIGHLLEDQFQRLSTLEQQLMYWLAINREKVSSTKLQTAFTSPLSKPKLIETLESLRWRSLIESNTGQFTQQPVVMEYVTDSLVEQVCQEIITESPQYLLTHALMQVQAKDYIRDSQINLIVCPILKQLQITLGSVHQLDLKLGRLIRKLQSKVIETVGYGGGNLLNLLAQLDTDLTGYDFSGLDMRECDLRTVNLHAVNFTQTTFRDCVFAATFGGITSVAFSRDGCQLATSDTSGVINIWDVNNGKQLFNCQEHNSWIWDVAFSSVAPVLASCGQDHTIKLWNTTTGECFNTLHGHTSIVTSVAFSPEGKLLASSSYDHSVKVWDLDTGECLQTFLGHDACVWSVVFHPVGQILATAGEDNTIKLWELQSGCCLKTLQGHQHWVKTIAFNSGGRILASGSFDQNVKLWDIHTGKCVMTLQGHTGVVTSVAFNPKDNLLLSGSYDQSVKVWDRKTGRCLDTLKKHTNRIWSVAFHPQGHLFVSGGDDHAAKIWELGTGQCIKTFQGHSNATYTIAHNWEHSLLASGHEDQTIKLWDLNLHSPHKSNVNTHPFRILQGHSNRVFSVVFSSTGQLLASGSADRTIKLWSPHTGQCLHTLHGHGSWVWAIAFSLDDKLLASGSYDHTVKIWDVSSGQCLQTLQGHPGSVLAVAFSCDGKTLFSSGYEKLVKQWDVETGYCLQTWEADSNRVWAVAVSRDNQYLATGGDDSVVRLWDIGKGVCVRTFSGHTSQVICILFTKDGRRMISSSSDRTIKIWNVSTGECLATLQAHDHWVWSLYLTPDEKTLLSSSWDETIKCWNISTGECWQTLRPARPYEGMIINEVVGLSQAQIATLKALGALEVN” the protein production was “failed”.
With “MTVGTYAELASVFAALSDETRWEILTELGRADQSASSLATRLPVSRQAIAKHLNALQACGLVESVKVGREIRYRALGAELNKTARTLERIGAEWDRRLAAIKQIAESMEE” the protein production was “not failed”.
For “MTVLRKQAREAGVYMKVVRNTLARRAVEGTEYECLTDTFTGPSLLAFSNEHPGAAARLFKDFAKENKDFEIKAAAFEGAVTDADVLATLPTYDEAIARLMMCMKEASAGKLVRTIAAVRDQKEEAAA”, the protein production was “failed”.
In the case of “MTVQTAIFDLIKQAKTIIIHRHQRPDPDAIGSQLGLAAIIKASFPAKRVLTPGKQYHGFDWLGQMDEVTEADYQDALVLILDTANQPRIDGELWNQGKTIVKIDHHPNDDAFGDPQWVDVDASSTSEMIYNWYAPLAAELTLTANAARLLYAGIVGDTGRFLYSATKPSTMRAAAALMEAGADAEAVNRIEDTITLPVARLSAYVYEHLTQLDSGAAYVILTNAILDSFAIGDASTAGVVPLPGRIDTVKCWAIFVQQKEGDFRIRLRSKGPSINGVAKNHDGGGHALASGAKAKDQQEIETVVRELDQVASQYEKEVLEHHHHHH”, the protein production is reported as “failed”.
With “MTVRLTFMCATAGGTTRDAVFGDGLLSERGLRRARAAGATLPPYSLAIRAPSVRCAQTAYALGLPTTLEPALRDLDYGTWRGRTVGEVVADEPYGYSAWLTDPDAAPHGGESVRRLCRRIANWLSSVPPYPGRALVITEPSVVRASLVHALSAPVTAFRHFDVPPLSTVSLTLSDGHWIVRPGRVTPDRVGTSRAVPTPYDAAEGRTALLWGEATPA” the protein production was “failed”.
For “MTVRSRFFTEAEGKAVGVENAAAKGDVLLVCEHASATIPQKYGTLGLSADVLSSHAAWDPGALAVARLLSEKFHATLVYQRFSRLVYDCNRPPESPSAMPVKSEIYDIPGNFDLDEAERFARTSALYVPFHDRVSEIIAERQAAGRKVVVVTIHSFTPVYHGRFREVEIGILHDNDSRLADAMLAGAEGASLTVRRNDPYGPEDGVTHTLRLHALPDGLLNVMIEIRNDLIANEGEQAAIAGFLHELMGKALSSIEE”, the protein production was “not failed”.
In the case of “MTVSDPAGPRCFCRDCLVDLDMGVRRCSACGSPRLVRHRALSSLTIAHIDCDAFYATVEKRDNPDIADKPVIIGGGKRGVVSAACYIARTYGVRSAMPMFKALDACPHAIVIRPDMAKYVRVGREVRQAMQALTPLVEPLSIDEAFLDLSGTERVHGMIPAKVLARFARNIERDIGISVSVGLSCNKFLAKIASDLDKPRGFAALDQEEARLMLASRPVGFIFGVGPATQERLVQRGFRIIADLQKADEIEMMRQFPSDGRRLWRLARGIDDRRVEPDRGAKTISSETTFETDIRDFATLEKILWRLCEKTSSRLKSSELAGSTVTLKLKTADFRQRTRSQSIAAPTQLAAKIFSICREMLAKEIDGTAFRLMGAGVSALREGSPADDTDMLDRRAAHAERAVDSLRKKFGNSAVIRGIAYDGPETGQQE”, the protein production is reported as “failed”.
With “MTVSQDILLTDHFKQWIEIFKKGKVSDGTYRKYLYTLSVLKKHFSTATIKTMNRVKYQEMLNEFAEGHSDSSVKQINVHVRASLENLLDDFIIKNDFTKGAISLEHHHHHH” the protein production was “not failed”.
In the case of “MTVTSPRIATILLLIVCFIWGVEFVPIDLAIEVMPTNTFNAIRFAVATLSMLPLLWFVQKKNKGNSKPIDYVLLIRSGMLLGFFLFIGFYTQTEGMRFTTVTNAGFITGLCVPLVPVLGFLIFRNVVPKSVWIGVVTATAGLYMLTIGDKLVFNKGDILVLICAFGFAGHIIMTDRFVDNLPIIPLSIVQIFAVSIYSTIAIFIGPDPVFYYQDAEPVSWYQQLFTPLMIFAILVSGILGTAYAFWAQSVSQTLLKPHKVALIFAAEPVFACIAAWVFLDEVLGEKGMIGAGLILAGMLVSELGDRKKQPELRALDQTAALK”, the protein production is reported as “failed”.
With “MTWLFCDRIATKIDKNNGISMITHNFNTLDLLTSPVWIVSPFEEQLIYANSAARLLMQDLTFSQLRTGPYSVSSQKELPKYLSDLQNQHDIIEILTVQRKEEETALSCRLVLRKLTEAEPVIIFEGIEAPATLGLKASRSANYQRKKQGFYARFFLTNSAPMLLIDPSRDGQIVDANLAALNFYGYNHETMCQKHTWEINMLGRRVMPIMHEISHLPGGHKPLNFVHKLADGSTRHVQTYAGPIEIYGDKLMLCIVHDITEQKRLEEQLEHAAHHDAMTGLLNRRQFYHITEPGQMQHLAIAQDYSLLLIDTDRFKHINDLYGHSKGDEVLCALARTLESCARKGDLVFRWGGEEFVLLLPRTPLDTALSLAETIRVSVAKVSISSLPRFTVSIGVAHHEGNESIDELFKRVDDALYRAKNDGRNRVLAA” the protein production was “failed”.
In the case of “MTWSFTLGRLFGSELKVHVTFFLLIGWIGVSAYQMGGWPSAVENTAFVLALFACVVAHEYGHALTARRYGIRTPDITLLPIGGLARLDRMPEKPGQEIVVALAGPAVNVAIWAALTLVGVDTRFETLAAIDSAEPDFLGRLAMVNLFLAVFNLIPAFPMDGGRVLRAALSLTMDRVRATRIAAAAGQLVALLFGFAGLSGGNPVLVLIAVFVFIAANAEAQDVAMRAVTRRLLARDAMITRFEALGPTDTLATAAQAVLHTTQHEFPVLDGEGHLLGFVTRARLFAALAADHPRSDPAETVMDREIPQVPLASGLETVLDALYQGAPAVAVTSADGRMLGYVTRENVGELMVIQGR”, the protein production is reported as “failed”.
In the case of “MTYKSLPVAEKIQSYWNRRARLVIVTSFTILCAAATIYFHMILGVEIVFTHLFYIPMVFAAVWFGRRSFIVTAFLGTVLLVTHALASLGGFQDDVMRLSVMFFVNAITVILSESIGESEEALAESEEKYRTIVESARDAIITVDGNGSIVSWNSAAEKIFGYRAAEMMGRHIDTIITEENLEKHDFNRIIDREISIMVTDVEGVRKDGTRVPLEISVFSWNYMDEKFITAVIRDVTERKMAENALIESERKFRAVFDGVEDIITIVEIRENGLPGKYIEVNRAAVEKLGYSRDELLRMTPADMGVSREQSYDIIKNLLRSGKVTFNRTYISRDGRRIPVEVNSRLLELGEMKVAVSVARDITQRLENERRLRESEEKYRSLFDLSPEYILLLDPEDGRILDVNSTLAGTLGIPSEELRGRSIYELEFLSDDVKTEFRSKIEVIERDGTLEPYEMVLTDPYGREYTVRIYNKLIHAEGRECLLIVLNDISDLKRTQSMLEKSLAEKELLLKEIHHRVKNNLMIISSLLSLQSRQAKDRETMDLFRESENRTRSMVLIHERLYRSEDLKNIDLAEYLGRLASEIFRSYSADSRIRLKLEIDELKVDVETAVPLGLIVNELLTNAVKHAFPDGEGTVTVSLRKRNGTVTLEVSDDGAGFPEDIDWESSPSLGLQLVRKPH”, the protein production is reported as “failed”.
With “MVAAIIAGAAVAAAAYAGKYGIEAWQAFKLRPVRPRMRKFYEGGFQATMNRREAALILGVRESVAAEKVKEAHRRVMVANHPDAGGSHYLASKINEAKDMMLGKTKNSGSAF” the protein production was “failed”.
For “MVADSFVYSFVSSPDLSVLVLLCVLLLTALRQVGSLRLQIWQVMTLGAFSVLLLGEISPQEALRAINIDVLLFLFGAFCVGEALNRSGYLAWIGGRIVSRAKNTDQLVLLVIFSTGLLSAVLMNDTLAIMGTPLVLRFSRKYGVSPKLMLFALAFGITTGSVMSPIGNPQNLLIAIDGNLDSPFVVFLSSLAVPTMINLVLVYAVLKLFFSREFGKPALIHTEELISDPELAEISKKALFLLLALITCKILLVEFLPAWDFSLSWIALFSASPILLSKRRTEVVKNIDWATLVFFVSMFVLMESVWISGTCQGLLYRMSPQLGSVPTILALSIGLSQLISNVPFVALYLPAMGSGVSQGQLMALAAGSTIAGNLLILGAASNVIILQNAEKEGETFSFMEFAKIGLLISFLNAIIYFIFL”, the protein production was “failed”.
In the case of “MVARDTTAPQVKIVNPVTGNVSGSNVPISVNASDDSGASGITYALYIDGVLKATGKGSTLGYNWNIRNVAAGAHTVQVVAKDAAGNSASSSVSVTVVKLEHHHHHH”, the protein production is reported as “failed”.
With “MVCFASLFEEVSMHTCPLCHNQHTRHYFEDKHREYLQCEQCYLVFVNPDQRLDAETEKAHYDLHENNPEDIGYRRFLSRIADPITERISPQSNGIDFGCGPGPTLSLMLEEAGHNMALYDIYYHPDTAVLEKQYDFMTATEVIEHLYHPDVVWKQWLNLVKPGGWIGLMTKMVIDVEAFKSWHYKNDPTHVVFFSRDTFQFLAERDKLELEFIGNDVILLRKTQLEHHHHHH” the protein production was “not failed”.
In the case of “MVDQNPEEYYSKGILQYDDGNYTESIDLFEKAIQLNPEESKYWLMKGKALYNLERYEEAVDCYNYVINVIEDEYNKDVWAAKADALRHIEGKEVEAEIAEARAKLEHHHHHH”, the protein production is reported as “not failed”.
For “MVDYKTVRCHFGDVELTKWITITDGFTVFSGADYDPELKEIGGKDGSIFIGTKTKHKVIKVPFWVKYNTIEDYDALQLALSSKKPKMLMFSHIPGRYYLAVQVGDLNFKEIKMNGFGEITFIVADAYAHSTSYRRIKDYTQDGNKMTFKIKNNGTAPAFPIFRIKHLGENGYIGITNETGAFAVGSPEEEDGTIVHRNETLFDYSKAIAQALEGAPNVAKLNYMPPTFDSELKRMRLDNILGSGKGGEYVAIGARGTTPGYGEHVGTRTFIINPDSNGEYTLNEHLWWKQIFIATAQDQKGFLKLCVTGENDEFLYGIETYKRKNGFETEYNFFALDDDGVGWRFYKQFEFQADRNYHNPFSMNRSRAVEIFREEDKFRIYFNGAHHHVTVPSLKGKKSRKIHLAMGTCSDSSKYINYNLFEKVNFEKMGVSHYNNIVNKYQPGDEVIINFENDTVSTKDIDSIQDVVLGSKMISIPPGESELVVHLSSWVAALPDISIDFEERYK”, the protein production was “failed”.
With “MVEADRPGKLFIGGLNTETNEKALEAVFGKYGRIVEVLLMKDRETNKSRGFAFVTFESPADAKDAARDMNGKSLDGKAIKVEQATKPSFE” the protein production was “failed”.
